Experimental findings from patent US20240132578A1 are described below.

Holding throughout (assay): cell-based or functional assay
For assay [1], the target named is HIV-1 MGRM-G-009 Env (pseudovirus) (HIV-1).
In assay [2] the target is HIV-1 Env of isolate MGRM-D-021 (clade D pseudovirus) (HIV-1).
The target in assay [3] is HIV-1 92TH021 Env (pseudovirus) (HIV-1).
For assay [4], the target named is HIV-1 IAVI-C3 envelope (Env) on pseudovirus (HIV-1).
Assay [5] deals with HIV-1 92RW021 envelope glycoprotein (Env) on pseudovirus (HIV-1 (clade A)).
Assay [6] has as its target HIV-1 Env of isolate 93TH305, clade B (HIV-1).
The target in assay [7] is HIV-1 Env of isolate MGRM-D-012 (clade D pseudovirus) (HIV-1).
In assay [8] the target is HIV-1 Env of isolate MGRM-D-005 (clade D pseudovirus) (HIV-1).
In assay [9] the target is HIV-1 Env of isolate MGRM-D-022 (clade D pseudovirus) (HIV-1).
Assay [10] concerns the target HIV-1 MGRM-AG-009 Env (pseudovirus) (HIV-1).
Assay [11] addresses HIV-1 Env of isolate APV_17, clade B (HIV-1).
Assay [12] addresses HIV-1 MGRM-AG-003 Env (pseudovirus) (HIV-1).
Assay [13] deals with HIV-1 envelope glycoprotein (Env) of isolate MGRM-C-004 (HIV-1).
Assay [14] has as its target HIV-1 envelope glycoprotein (Env) of isolate MGRM-C-009 (HIV-1).
Assay [15] has as its target HIV-1 Env of pseudovirus MGRM-F1-012 (clade F) (HIV-1).
Assay [16] concerns the target HIV-1 92BR020 envelope (Env) on pseudovirus (HIV-1).
For assay [17], the target named is HIV-1 Env of pseudovirus MGRM-G-016 (HIV-1).
The target of assay [18] is HIV-1 Env of pseudovirus MGRM-G-027 (HIV-1).
Assay [19] deals with HIV-1 94UG103 envelope (Env) on pseudovirus (HIV-1).

By IC50 is commonly meant the concentration that inhibits the measured activity by half. The low end stands for greater potency in that assay, the high end for weaker potency in that assay.

1443_C16 (PG16) (TCN-116) (antibody), sequence (VH): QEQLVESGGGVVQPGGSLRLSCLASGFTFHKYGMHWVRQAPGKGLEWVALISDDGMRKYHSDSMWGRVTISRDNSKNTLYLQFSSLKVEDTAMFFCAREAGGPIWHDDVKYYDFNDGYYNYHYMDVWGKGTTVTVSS
1443_C16 (PG16) (TCN-116) (antibody), sequence (VL): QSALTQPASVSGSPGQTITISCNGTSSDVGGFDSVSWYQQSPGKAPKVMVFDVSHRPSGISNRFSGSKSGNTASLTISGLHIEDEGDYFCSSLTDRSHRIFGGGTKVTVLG

Take 1495_C14 (PGC14) (antibody): the IC50 (µg/ml), pseudovirus neutralization in assay [1] was above 50 µg/mL; in assay [3], above 50 µg/mL; in assay [5] it was above 50 µg/mL; in assay [6], 6 µg/mL; in assay [10] it was above 50 µg/mL; in assay [11] it was above 50 µg/mL. Also, the IC50 (µg/ml), pseudovirus neutralization in [12], in [13], in assay [14], in [17] and in assay [18] was above 50 µg/mL throughout. Further, the IC50, pseudovirus neutralization in assay [2], in [7], in [8] and in assay [9] was above 50 µg/mL in each case. Further, the neutralization IC50 was above 50 µg/mL in assay [4], 0.637 µg/mL in assay [16] and above 50 µg/mL in [19]. The substance also registered an IC50 in assay [15] above 50 µg/mL.
Regarding 4E10 (antibody), the IC50 (µg/ml), pseudovirus neutralization in [1] came out at 1.34 µg/mL; in assay [3], 1.17 µg/mL; in [5], 4.87 µg/mL; in assay [6], 12.3 µg/mL; in assay [10], 31.4 µg/mL; in assay [11], 10.5 µg/mL. For the same substance, the IC50 (µg/ml), pseudovirus neutralization was 0.64 µg/mL in assay [12]; 24.2 µg/mL in [13]; 0.56 µg/mL in [14]; 1.02 µg/mL in assay [17]; 1.19 µg/mL in assay [18]. Besides, the IC50, pseudovirus neutralization in assay [2] amounted to 13.3 µg/mL; in assay [7], 1.13 µg/mL; in [8], 35.2 µg/mL; in assay [9], 16.9 µg/mL. The neutralization IC50 in assay [4] stood at 5 µg/mL; in assay [16] it was 41.4 µg/mL; in assay [19] it was 9.7 µg/mL. In assay [15], this substance returned an IC50 of 0.37 µg/mL.
Turning to 1443_C16 (PG16) (TCN-116) (antibody), the IC50 (µg/ml), pseudovirus neutralization in assay [1] was above 50 µg/mL; in assay [3], 0.1 µg/mL; in [5], 0.11 µg/mL; in assay [6] it was 19.3 µg/mL; in assay [10], above 50 µg/mL; in assay [11], 24.8 µg/mL. In addition, the IC50 (µg/ml), pseudovirus neutralization is above 50 µg/mL in assay [12]; 5.09 µg/mL in [13]; above 50 µg/mL in [14]; 11.3 µg/mL in [17]; 0.01 µg/mL in assay [18]. In addition, the IC50, pseudovirus neutralization in assay [2] is above 50 µg/mL; in assay [7], 0.35 µg/mL; in [8], 19.7 µg/mL; in assay [9], above 50 µg/mL. Further, the neutralization IC50 in assay [4] was 14.8 µg/mL; in assay [16] it was above 50 µg/mL; in assay [19], 0.008 µg/mL. Also, the IC50 in assay [15] is 0.003 µg/mL.
